Reference: US20250270324A1 (INVOX PHARMA, published 2025)
Numbering of substitutions follows the chain as printed.

B1: G1/929_01_A11 (antibody, human IgG1)
heavy: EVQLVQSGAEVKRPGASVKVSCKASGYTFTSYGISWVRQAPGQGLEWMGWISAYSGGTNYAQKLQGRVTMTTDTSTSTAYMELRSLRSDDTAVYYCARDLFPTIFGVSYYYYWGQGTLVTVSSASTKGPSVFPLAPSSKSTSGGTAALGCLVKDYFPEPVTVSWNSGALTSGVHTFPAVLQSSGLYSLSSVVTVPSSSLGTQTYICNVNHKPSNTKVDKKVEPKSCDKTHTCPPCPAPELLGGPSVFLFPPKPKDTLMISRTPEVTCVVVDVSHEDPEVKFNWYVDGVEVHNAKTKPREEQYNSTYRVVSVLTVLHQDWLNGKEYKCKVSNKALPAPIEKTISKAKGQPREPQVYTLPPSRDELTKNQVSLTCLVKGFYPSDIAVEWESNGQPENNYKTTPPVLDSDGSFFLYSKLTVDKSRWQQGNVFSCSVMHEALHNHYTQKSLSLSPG
light: DIQMTQSPSTLSASVGDRVTITCRASQSISGRLAWYQQKPGKAPNLLIYEASNLESGVPSRFSGSGSGTEFTLTISSLQPEDFATYYCQQSYSWPRTFGQGTKVEIKRTAAAAPSVFIFPPSDEQLKSGTASVVCLLNNFYPREAKVQWKVDNALQSGNSQESVTEQDSKDSTYSLSSTLTLSKADYEKHKLYACEVTHQGLSSPVTKSFNRGEC
notes: IgG1; said to be the same as G1AA/G12v2 but without LALA
B2: G1/929_01_A12 (antibody, human IgG1, V domains shown)
VH: EVQLVQSGAEVKRPGASVKVSCKASGYTFTSYGISWVRQAPGQGLEWMGWISAYSGNANYAQKLQGRVTMTTDTSTSTAYMELRSLRSDDTAVYYCARDLFPTIFGVSYYYYWGQGTLVTVSS
VL: DIQMTQSPSTLSASVGDRVTITCRASQSISGRLAWYQQKPGKAPNLLIYEASNLESGVPSRFSGSGSGTEFTLTISSLQPEDFATYYCQQSYSWPRTFGQGTKVEIKR
notes: IgG1
B3: G1/929_01_A10 (antibody, human IgG1, V domains shown)
VH: B2 VH with S55G, N57S, A58T
VL: B2 VL
notes: IgG1
B4: G1/929_01_A01 (antibody, human IgG1, V domains shown)
VH: B2 VH with S55G, N57S, A58T
VL: DIQMTQSPSTLSASVRDRVIITCRASQSIGNRLAWYQHKPGKAPKLLIYEASTSETGVPSRFSGSGSGTDFTLTISSLQPEDFATYYCQQSYSTPYTFGQGTKLEIKR
notes: IgG1; The heavy chain as printed has T28
B5: G1/929_01_A05 (antibody, human IgG1, V domains shown)
VH: B2 VH with N57G, A58T
VL: DIQMTQSPSTLSASVGDRVTITCRASQSISGRLAWYQQKPGKAPNLLIYEASNLESGVPSRFSGSGSGTEFTLTINSLQPDDFATYYCQQANTFPRVSFGGGTKVEIKR
notes: IgG1
B6: G1/929_01_A06 (antibody, human IgG1, V domains shown)
VH: B2 VH
VL: B5 VL
notes: IgG1
B7: G1/929_01_A04 (antibody, human IgG1, V domains shown)
VH: B2 VH with S55G, N57S, A58T
VL: B5 VL
notes: IgG1; GGST variant of G1/894_08_A05
B8: G1/894_08_A05 (antibody, human IgG1, V domains shown)
VH: B2 VH with S55N, G56S, A58T
VL: B5 VL
notes: IgG1 without LALA, kappa light chain
B9: G1/929_01_A03 (antibody, human IgG1, V domains shown)
VH: B2 VH
VL: B4 VL
notes: IgG1
B10: G1/929_01_A09 (antibody, human IgG1, V domains shown)
VH: B2 VH
VL: B5 VL with N76S, D81E, A91S, N92Y, T93S, F94T, S98T, G101Q
notes: IgG1; SGNA variant of G1/894_08_E05
B11: G1/929_01_A08 (antibody, human IgG1)
heavy: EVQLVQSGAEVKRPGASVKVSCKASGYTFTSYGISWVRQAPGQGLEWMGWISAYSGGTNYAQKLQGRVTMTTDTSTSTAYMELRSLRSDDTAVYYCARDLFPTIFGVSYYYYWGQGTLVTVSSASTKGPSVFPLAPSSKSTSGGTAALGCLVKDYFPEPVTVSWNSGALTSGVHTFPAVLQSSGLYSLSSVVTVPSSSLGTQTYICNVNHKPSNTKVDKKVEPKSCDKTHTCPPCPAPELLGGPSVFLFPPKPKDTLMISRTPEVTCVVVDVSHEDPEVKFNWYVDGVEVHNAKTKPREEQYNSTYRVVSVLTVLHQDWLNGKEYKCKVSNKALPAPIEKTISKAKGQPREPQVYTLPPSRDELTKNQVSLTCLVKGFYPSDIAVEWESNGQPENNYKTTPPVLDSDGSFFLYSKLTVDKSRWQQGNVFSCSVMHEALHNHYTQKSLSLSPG
light: DIQMTQSPSTLSASVGDRVTITCRASQSISGRLAWYQQKPGKAPNLLIYEASNLESGVPSRFSGSGSGTEFTLTISSLQPEDFATYYCQQSYSTPRVTFGQGTKVEIKRTAAAAPSVFIFPPSDEQLKSGTASVVCLLNNFYPREAKVQWKVDNALQSGNSQESVTEQDSKDSTYSLSSTLTLSKADYEKHKLYACEVTHQGLSSPVTKSFNRGEC
notes: IgG1; SGGT variant of G1/894_08_E05; said to be the same as G1AA/E05v2 but without the LALA mutation
B12: G1/929_01_A07 (antibody, human IgG1, V domains shown)
VH: B2 VH with S55G, N57S, A58T
VL: B5 VL with N76S, D81E, A91S, N92Y, T93S, F94T, S98T, G101Q
notes: IgG1; GGST variant of G1/894_08_E05

These binders were tested against T1, human PD-L1-rCD4-His (human) (assay: SPR, IgG1 from culture supernatant).
T1 construct: Human PD-L1 fused to the monomeric C-terminal rat CD4 domains 3 and 4 tag and His tag; made in HEK293; The entry as printed begins with the signal peptide (MRIF...); also called hPD-L1-rCD4-His; hu-PD-L1-rCD4-His
T1 sequence (chain, as listed by the source limits assumed): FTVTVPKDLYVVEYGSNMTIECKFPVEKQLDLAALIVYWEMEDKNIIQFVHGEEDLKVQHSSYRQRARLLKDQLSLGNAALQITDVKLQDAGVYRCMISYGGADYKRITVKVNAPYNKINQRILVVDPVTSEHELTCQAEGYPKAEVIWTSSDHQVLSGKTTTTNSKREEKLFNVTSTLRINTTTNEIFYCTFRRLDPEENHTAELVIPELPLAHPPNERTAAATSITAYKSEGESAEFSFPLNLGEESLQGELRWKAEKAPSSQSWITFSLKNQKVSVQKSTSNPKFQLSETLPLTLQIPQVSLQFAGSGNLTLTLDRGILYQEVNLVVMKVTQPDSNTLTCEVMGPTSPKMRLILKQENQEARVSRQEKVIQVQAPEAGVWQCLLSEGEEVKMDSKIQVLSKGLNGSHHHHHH
For B1, the Kd was 0.51 nM. Work on B2 yielded a Kd of 0.51 nM. B3 was tested, and the Kd was 0.42 nM. For B4, the Kd was 2.66 nM. For B5, the Kd was 0.55 nM. With B6 the Kd was 0.45 nM. B7 was tested, and the Kd was 0.47 nM. In the case of B8, the Kd is reported as 0.42 nM. With B9 the Kd was 2.66 nM. For B10, the Kd was 0.49 nM. With B11 the Kd was 0.5 nM. B12 showed a Kd of 0.47 nM.

These binders were tested against T2, Cyno PD-L1-rCD4-His (cynomolgus) (assay: SPR, IgG1 from culture supernatant).
T2 construct: The entry as printed begins with the signal peptide; also called cynomolgus PD-L1-rCD4-His
T2 sequence (chain, as listed by the source limits assumed): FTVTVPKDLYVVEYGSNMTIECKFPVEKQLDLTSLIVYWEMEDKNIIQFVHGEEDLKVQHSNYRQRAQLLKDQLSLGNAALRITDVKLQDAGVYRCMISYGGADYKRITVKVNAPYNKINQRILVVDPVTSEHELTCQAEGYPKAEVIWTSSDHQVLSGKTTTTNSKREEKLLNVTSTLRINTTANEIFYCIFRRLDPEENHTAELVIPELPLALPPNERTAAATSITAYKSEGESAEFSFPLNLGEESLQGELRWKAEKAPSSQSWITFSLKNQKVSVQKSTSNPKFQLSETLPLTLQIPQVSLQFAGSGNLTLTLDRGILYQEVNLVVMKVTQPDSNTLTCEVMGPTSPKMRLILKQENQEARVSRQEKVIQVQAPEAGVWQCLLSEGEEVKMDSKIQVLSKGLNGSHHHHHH
With B1 the Kd was 0.57 nM. In the case of B2, the Kd is reported as 0.66 nM. B3 gave a Kd of 0.6 nM. With B4 the Kd was 3.18 nM. For B5, the Kd was 0.62 nM. Work on B6 yielded a Kd of 0.58 nM. In the case of B7, the Kd is reported as 0.6 nM. B8 showed a Kd of 0.57 nM. Work on B9 yielded a Kd of 3.31 nM. Work on B10 yielded a Kd of 0.57 nM. With B11 the Kd was 0.65 nM. With B12 the Kd was 0.59 nM.
